Assay results: publication PMC11667226 (Theranostics, 2025)
Marks after values point to notes of the source that are not given here. Non-standard residues stand in square brackets, D forms with d. Residues, ends and D or L forms follow the SMILES beside them. *: point of attachment. X1 = CC1(C)C(=CC=CC=CC=CC2=[N+](CCCCCC(=O)*)c3ccc4ccccc4c3C2(C)C)N(CCCCS(=O)(=O)[O-])c2ccc3ccccc3c21; Cha = N[C@@H](CC1CCCCC1)C(=O)O

Key:
[1] = tested on: oral and oropharyngeal squamous cell carcinoma (OSCC, OPSCC); assay: Intraoperative near-infrared optical imaging: tumor-to-background ratio and absolute intensities (Elevision); assay type: in vivo, human; conditions: for TBR (mean (range)): preoperative NIR image, max tumor ROI / mean of 3 background ROIs, Elevision, 805 nm
Procedure: All patients were treated surgically according to the national guidelines. The primary investigator (PI) was part of the surgical team in all procedures. A surgical robot system (DaVinci Si, Intuitive) was used for TORS in the two patients with OPSCC. The surgeons were not allowed to resect tissue based on intraoperative detected fluorescence signal but complied with standard of care. Depending on the clinical TNM staging (based on clinical examination, ultrasonography examination of the neck, and MRI or CT scans), either sentinel lymph node biopsy (using 99^mTc-nanocoll) or neck dissection was performed for neck management. Post-surgical (chemo)radiation was prescribed according to national guidelines at a multidisciplinary conference. The pre-, intraoperative, and ex-vivo optical images were obtained using the open-field imaging system Elevision® model VS3 Iridium-Visionsense Infrared (IR) Fluorescence, Vision System (Medtronics, USA). Image profile: NIR_highcontrast or NIR_contrast, excitation laser: 805 nm. The Elevision IR system generates real-time optical imaging merged with the color video recording on a viewer screen. The intensity-dependent multi-color NIR overlay was presented in parallel with white-light and NIR grayscale images. The camera head was mounted on a maneuverable arm over the surgical field with sterile draping. The preferred camera-to-tumor distance was 20-40 centimeters, but the system also allows positioning at closer or longer distances to areas of interest. For optimal imaging, all other light sources in the OR were switched off and window blinds were closed. The imaging system itself provides powerful white light illumination of the surgical field when imaging is performed.
All images and videos were stored in JPG- and mp4-file format. The following images were captured for all 16 patients who completed the trial: 1) Preoperative images of the tumor. 2) Intraoperative images of the tumor and metastatic lymph nodes. 3) Images of the surgical cavity (i.e., tumor bed) after tumor resection. 4) Ex-vivo images of the resected tumor specimen on the back-table, see Figure 2.
For imaging analysis, the TBR was calculated as the maximum fluorescence intensity of the tumor region of interest (ROI) divided by the mean fluorescence intensity of 3 background ROIs on a preoperative NIR image by use of an in-house designed Python-based annotation tool. The tumor ROIs were drawn based on information from intraoperative clinical observations, and preoperative white-light and NIR images. Background ROIs were defined within the soft tissues adjacent to the tumor. The absolute numeric intensities were obtained by adjusting the fluorescence intensity for the specific gain values applied by the imaging system.

[2] = 40 patients with malignant glioblastoma, 1 to 48 mg; ref [15],[33]; cited from earlier work
[3] = clinical
Procedure: The blood samples were collected in Vacuette® 3 mL K2E K2EDTA vacutainer blood collection tubes, centrifuged (2500 rpm for 10 min at 4 °C), and the plasma was stored in a -20 °C freezer. Plasma concentrations were measured based on liquid chromatography with tandem mass spectrometric detection (LC-MS/MS) validated according to good laboratory practice (GLP), (LabCorp, Huntingdon, UK). The PK analysis was performed using a non-compartmental analysis method. […] The terminal phase half-life (T½) was calculated using terminal phase rate constant, which resulted from linear regression of the terminal linear portion of the log-concentration vs. time curve.
The primary endpoint was the sensitivity for detection of oral and oropharyngeal cancer verified by histology. The secondary endpoints were divided into efficacy and safety & tolerability. Regarding efficacy, the TBR and intraoperative tumor signal intensity were endpoints. The pharmacokinetics profile determined by a non-compartmental analysis was specified by peak plasma concentration, time of peak plasma concentration, the area under the plasma concentration-time curve from time-zero extrapolated to infinity, and terminal half-life. The safety & tolerability were assessed with adverse event monitoring, laboratory parameters, ECGs, vital signs, and physical examinations.

[4] = tested on: oral and oropharyngeal squamous cell carcinoma (OSCC, OPSCC); assay: Longitudinal preoperative transoral imaging of the tumors; assay type: in vivo, human
Procedure: For 3 out of the 16 patients, longitudinal preoperative imaging of their tumors was captured during the period before surgery. […] Minor deviations from the protocol requirements were due to prioritization of the patients' night sleep before surgery - therefore, no images were taken in the timespan between 8 and 14 hrs post-injection. All longitudinal images were captured with the same camera-to-tumor distance (app. 25-35 cm) in a darkened room. The TBR value was calculated for all time points and plotted as a function of time, see Figure 4 for a case example.

[5] = molecular target: T1, uPAR (Homo sapiens, UniProt Q03405); assay: Morphological co-localization between FG001 signal, tumor tissue and uPAR expression (Typhoon/Odyssey scan, IHC, H&E)
T1 construct: from tissue
Description: For 5 out of the 16 patients, the resected tumor specimens were cut in half, sliced at the OR, and imaged with the Elevision® imaging system. The specimens underwent routine pathologic processing at the Department of Pathology. The slices were frozen with a Milestone PrestoCHILL cryoembedder/freezer and, cut into 8 µm tissue slices with a Leica® CM1860 Cryostat and placed on glass slides. To evaluate the overlap between fluorescence signal from FG001, uPAR-expression, and tumor tissue, the cryosections were first fluorescently scanned with an Amersham Typhoon^TM scanner from Cytiva and, thereafter, stained using immunohistochemistry for uPAR and Cytokeratin (CK), and hematoxylin and eosin (H&E) stained. The Typhoon^TM scanner settings were PMT: 350-500 V and excitation wavelength: 785 nm. The immunohistochemical staining for uPAR was performed with the antibody GTX100467 (Gentex, USA), and Cytokeratin with M351529-2 Dako (Agilent). The H&E stain was performed according to standard practice. All tissue slides were scanned with the high-resolution AxioScan 7 (Zeiss, Germany). […]
The different stained tissue sections were aligned using the BigWarp plugin in Fiji (NIH, open-source version: 1.54f) software. A pathologist delineated the tumors, and the fluorescence imaging generated from the Typhoon scanner was overlayed on the HE stains using ImageJ (NIH, open source), (see Figure 3M).

T1 sequence (Q03405 23-335): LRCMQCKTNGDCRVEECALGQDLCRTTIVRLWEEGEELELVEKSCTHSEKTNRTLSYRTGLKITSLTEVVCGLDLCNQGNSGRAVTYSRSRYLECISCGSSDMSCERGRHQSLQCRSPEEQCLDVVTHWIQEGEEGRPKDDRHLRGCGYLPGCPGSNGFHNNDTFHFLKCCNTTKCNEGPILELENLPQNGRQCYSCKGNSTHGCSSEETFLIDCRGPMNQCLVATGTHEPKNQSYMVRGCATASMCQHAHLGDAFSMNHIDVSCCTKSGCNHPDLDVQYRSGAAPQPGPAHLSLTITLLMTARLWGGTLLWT

## CC(C)C[C@H](NC(=O)[C@H](Cc1ccc(O)cc1)NC(=O)[C@@H](CCCNC(=N)N)NC(=O)[C@@H](CO)NC(=O)[C@H](Cc1ccccc1)NC(=O)[C@H](CC1CCCCC1)NC(=O)[C@H](CC(=O)O)NC(=O)[C@H](CCC(=O)O)NC(=O)[C@H](CCC(=O)O)NC(=O)CCCCC[N+]1=C(C=CC=CC=CC=C2N(CCCCS(=O)(=O)[O-])c3ccc4ccccc4c3C2(C)C)C(C)(C)c2c1ccc1ccccc21)C(=O)N[C@@H](Cc1c[nH]c2ccccc12)C(=O)N[C@@H](CO)C(=O)O [FG001, ICG-Glu-Glu-AE105] (X1-EED[Cha]F[dS][dR]YLWS-OH; N-terminus and C-terminus assumed)
[1]; FG001 4 mg i.v., n = 4 completed
  TBR (mean (range)): 3.07 (2.30 - 3.48)*
[1]; FG001 16 mg i.v., n = 8
  TBR (mean (range)): 2.91 (2.02 - 3.95)
[1]; FG001 36 mg i.v., n = 4
  TBR (mean (range)): 3.08 (2.68 - 3.46)
[1]; all patients, even at the lowest dose
  TBR (contrast for demarcation of tumors), consistently: above 2
[2]
  Grade I drug-related adverse events, number: 3
  Grade II drug-related adverse events, number: 1
  Safety and tolerability: safe and well-tolerated
[3]; all patients with a valid terminal phase
  Extrapolation to AUC from 0 to infinity (AUC0-inf): < 25%
[3]; human plasma, based on the plasma concentration measurements, all evaluable patients
  Mean half-life of FG001: approximately 12 hours
[3]; human plasma, single 4 mg i.v. dose, n = 4, LC-MS/MS
  Maximum concentration (mean (SD)): 577 (373)* ng/mL
[3]; human plasma, single i.v. dose, first sample at 1 hr ± 15 min
  Time of peak plasma concentration: within the first hour
[3]; human, plasma, iv
  Tmax: 1 h
[3]; human, plasma, iv, 16 mg
  Cmax: 4300 ng/mL
[3]; human, plasma, iv, 36 mg
  Cmax: 8130 ng/mL
  half-life: 11.2 h
[3]; one patient in the 4 mg group
  Time of peak plasma concentration, one outlier: 12.8 h
[4]; FG001 16 mg i.v., three awake patients, transoral
  Time post-injection after which tumor-specific signals could be detected: 2 h
[4]; FG001 16 mg i.v., three awake patients, transoral, from 2 hrs until 19 hrs post-injection
  TBR in longitudinal imaging: above 2
[4]; indicated by the longitudinal data for tumor imaging
  Window for drug administration prior to surgery: 2 to 19 h
[5]; days following surgery
  Optical signal in resected cancer tissues after formalin fixation and paraffin embedding: preserved
[5]; microscopic fluorescence imaging, tumor cross-sections of 5 patients across the 3 dose cohorts
  Co-localization between uPAR-expression and FG001 fluorescence signal: high level of co-localization
